Two molecules from publication PMC7884425, “HPF1 remodels the active site of PARP1 to enable the serine ADP-ribosylation of histones” (Nature Communications, 2021) can be followed below.

For orientation: stoichiometry N means the number of molecules, sites or subunits per partner or assembly. Broadly, the Kd is the free concentration of one partner at which half of the binding sites on the other are occupied at equilibrium, for simple one-to-one binding.

B1: human HPF1 (histone PARylation factor 1), wild-type (natural protein, UniProt Q9NWY4 1-346, looked up)
chain: MVGGGGKRRPGGEGPQCEKTTDVKKSKFCEADVSSDLRKEVENHYKLSLPEDFYHFWKFCEELDPEKPSDSLSASLGLQLVGPYDILAGKHKTKKKSTGLNFNLHWRFYYDPPEFQTIIIGDNKTQYHMGYFRDSPDEFPVYVGINEAKKNCIIVPNGDNVFAAVKLFLTKKLREITDKKKINLLKNIDEKLTEAARELGYSLEQRTVKMKQRDKKVVTKTFHGAGLVVPVDKNDVGYRELPETDADLKRICKTIVEAASDEERLKAFAPIQEMMTFVQFANDECDYGMGLELGMDLFCYGSHYFHKVAGQLLPLAYNLLKRNLFAEIIEEHLANRSQENIDQLAA
notes: HPF1 (C4orf27), human; TEV site ENLYFQG between the His tag and the protein; the tag was removed with TEV protease; also called C4orf27; not shown: His6, N-terminal, cleaved
B2: human PARP1-CAT ΔHD (661-678-GSGSGSGG-787-1014) (domain or fragment)
chain: TKSKLPKPVQDLIKMIFDGSGSGSGGKDPIDVNYEKLKTDIKVVDRDSEEAEIIRKYVKNTHATTHNAYDLEVIDIFKIEREGECQRYKPFKQLHNRRLLWHGSRTTNFAGILSQGLRIAPPEAPVTGYMFGKGIYFADMVSKSANYCHTSQGDPIGLILLGEVALGNMYELKHASHISKLPKGKHSVKGLGKTTPDPSANISLDGVDVPLGTGISSGVNDTSLLYNEYIVYDIAQVNLKYLLKLKFNFKTSLW
notes: PARP1, human, catalytic domain, residues 661-678; linker that replaces residues 679-786 (most of the HD subdomain); PARP1, human, catalytic domain (ART), residues 787-1014; also called CAT△HD; not shown: His6, N-terminal, cleaved

Test in all cases: ITC; HPF1 wild-type or mutant 0.3 or 0.4 mM in the syringe, PARP1 CAT-ΔHD (or full-length CAT) 0.02 mM in the cell; 25 °C; 20 mM Tris-pH 8.0, 150 mM NaCl, 1 mM TCEP, 1 mM MgCl2
Holding throughout (conditions): both partners purified
Background: Isothermal titration calorimetry measures the heat released or taken up as one component is titrated into another.

In experiment [1] the target is B2.
A further experiment concerns the target T1, human HPF1 F280A (human, UniProt Q9NWY4 1-346, F280A).
T1 construct: HPF1, human; not shown: His6, N-terminal, cleaved
T1 sequence (looked up): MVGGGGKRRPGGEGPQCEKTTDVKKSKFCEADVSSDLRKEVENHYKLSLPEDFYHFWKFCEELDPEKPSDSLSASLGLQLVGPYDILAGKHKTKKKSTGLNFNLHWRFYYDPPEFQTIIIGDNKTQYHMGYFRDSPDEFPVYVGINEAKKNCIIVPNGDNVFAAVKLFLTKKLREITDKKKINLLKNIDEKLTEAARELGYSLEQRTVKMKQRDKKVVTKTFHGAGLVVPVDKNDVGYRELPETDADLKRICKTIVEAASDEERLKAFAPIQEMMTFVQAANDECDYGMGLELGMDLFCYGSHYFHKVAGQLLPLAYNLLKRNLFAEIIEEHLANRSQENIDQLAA

A further experiment addresses T2, human HPF1 R239A (human, UniProt Q9NWY4 1-346, R239A).
T2 construct: HPF1, human; not shown: His6, N-terminal, cleaved
T2 sequence (looked up): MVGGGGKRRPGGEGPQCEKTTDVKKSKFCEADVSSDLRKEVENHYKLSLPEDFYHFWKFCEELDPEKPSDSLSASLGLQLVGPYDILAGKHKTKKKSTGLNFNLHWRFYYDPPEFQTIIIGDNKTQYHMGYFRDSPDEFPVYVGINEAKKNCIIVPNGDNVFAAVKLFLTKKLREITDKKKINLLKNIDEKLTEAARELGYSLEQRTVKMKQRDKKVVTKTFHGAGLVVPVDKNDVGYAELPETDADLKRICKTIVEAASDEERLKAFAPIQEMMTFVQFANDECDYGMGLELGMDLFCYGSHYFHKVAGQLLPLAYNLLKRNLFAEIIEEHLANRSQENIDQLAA

The target of a further experiment is T3, human HPF1 E284A (human, UniProt Q9NWY4 1-346, E284A).
T3 construct: HPF1, human; not shown: His6, N-terminal, cleaved
T3 sequence (looked up): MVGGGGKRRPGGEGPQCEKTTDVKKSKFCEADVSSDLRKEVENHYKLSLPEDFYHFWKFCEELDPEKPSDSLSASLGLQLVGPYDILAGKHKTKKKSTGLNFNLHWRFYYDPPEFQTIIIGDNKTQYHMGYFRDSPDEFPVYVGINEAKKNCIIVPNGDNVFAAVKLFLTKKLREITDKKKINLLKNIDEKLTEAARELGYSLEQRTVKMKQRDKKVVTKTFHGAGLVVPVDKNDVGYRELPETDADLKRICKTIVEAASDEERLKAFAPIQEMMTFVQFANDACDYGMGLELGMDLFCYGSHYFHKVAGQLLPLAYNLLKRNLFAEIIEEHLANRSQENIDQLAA

For the next experiment, the target named is T4, human HPF1 E138K (human, UniProt Q9NWY4 1-346, E138K).
T4 construct: HPF1, human; not shown: His6, N-terminal, cleaved
T4 sequence (looked up): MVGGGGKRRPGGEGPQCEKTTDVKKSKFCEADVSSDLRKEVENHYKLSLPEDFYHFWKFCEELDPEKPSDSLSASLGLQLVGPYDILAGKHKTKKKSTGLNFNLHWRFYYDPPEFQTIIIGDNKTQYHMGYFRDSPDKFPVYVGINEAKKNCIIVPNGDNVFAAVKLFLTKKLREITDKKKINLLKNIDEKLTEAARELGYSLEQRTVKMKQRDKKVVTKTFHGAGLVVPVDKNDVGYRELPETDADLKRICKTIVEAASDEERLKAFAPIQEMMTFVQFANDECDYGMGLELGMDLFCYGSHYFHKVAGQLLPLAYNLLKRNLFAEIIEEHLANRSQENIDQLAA

The next experiment addresses T5, human HPF1 C285H (human, UniProt Q9NWY4 1-346, C285H).
T5 construct: HPF1, human; not shown: His6, N-terminal, cleaved
T5 sequence (looked up): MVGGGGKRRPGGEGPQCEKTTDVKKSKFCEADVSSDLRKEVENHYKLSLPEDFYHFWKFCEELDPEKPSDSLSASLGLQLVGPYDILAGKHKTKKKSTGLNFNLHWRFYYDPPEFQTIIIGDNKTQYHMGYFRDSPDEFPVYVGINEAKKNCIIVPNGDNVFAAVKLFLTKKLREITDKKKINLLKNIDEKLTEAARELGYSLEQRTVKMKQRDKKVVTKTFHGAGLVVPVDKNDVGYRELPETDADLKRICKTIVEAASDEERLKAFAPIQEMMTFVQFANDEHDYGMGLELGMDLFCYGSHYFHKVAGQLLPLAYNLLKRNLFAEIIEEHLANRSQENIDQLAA

The target in a further experiment is T6, human HPF1 K216E (human, UniProt Q9NWY4 1-346, K216E).
T6 construct: HPF1, human; not shown: His6, N-terminal, cleaved
T6 sequence (looked up): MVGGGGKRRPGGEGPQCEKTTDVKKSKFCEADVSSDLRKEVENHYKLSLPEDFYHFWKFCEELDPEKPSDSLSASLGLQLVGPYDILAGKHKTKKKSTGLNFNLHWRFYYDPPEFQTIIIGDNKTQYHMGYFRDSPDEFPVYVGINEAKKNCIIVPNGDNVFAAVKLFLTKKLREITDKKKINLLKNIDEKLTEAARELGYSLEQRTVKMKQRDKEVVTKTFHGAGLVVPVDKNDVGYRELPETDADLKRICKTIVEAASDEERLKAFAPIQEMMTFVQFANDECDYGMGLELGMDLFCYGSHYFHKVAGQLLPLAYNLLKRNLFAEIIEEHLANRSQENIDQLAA

Experiment [2] concerns the target B1.
Another experiment addresses T7, human HPF1 K307S (human, UniProt Q9NWY4 1-346, K307S).
T7 construct: HPF1, human; not shown: His6, N-terminal, cleaved
T7 sequence (looked up): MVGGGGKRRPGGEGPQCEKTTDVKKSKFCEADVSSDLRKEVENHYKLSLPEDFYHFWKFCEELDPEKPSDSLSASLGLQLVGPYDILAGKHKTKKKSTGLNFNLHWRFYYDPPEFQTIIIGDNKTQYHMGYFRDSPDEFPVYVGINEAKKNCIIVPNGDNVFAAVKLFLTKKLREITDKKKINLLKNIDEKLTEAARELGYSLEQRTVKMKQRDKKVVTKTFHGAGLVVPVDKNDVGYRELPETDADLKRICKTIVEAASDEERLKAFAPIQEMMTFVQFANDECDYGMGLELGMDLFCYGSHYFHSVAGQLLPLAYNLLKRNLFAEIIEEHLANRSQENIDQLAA

The next experiment has as its target T8, human HPF1 F139S (human, UniProt Q9NWY4 1-346, F139S).
T8 construct: HPF1, human; also called HPF F139S; not shown: His6, N-terminal, cleaved
T8 sequence (looked up): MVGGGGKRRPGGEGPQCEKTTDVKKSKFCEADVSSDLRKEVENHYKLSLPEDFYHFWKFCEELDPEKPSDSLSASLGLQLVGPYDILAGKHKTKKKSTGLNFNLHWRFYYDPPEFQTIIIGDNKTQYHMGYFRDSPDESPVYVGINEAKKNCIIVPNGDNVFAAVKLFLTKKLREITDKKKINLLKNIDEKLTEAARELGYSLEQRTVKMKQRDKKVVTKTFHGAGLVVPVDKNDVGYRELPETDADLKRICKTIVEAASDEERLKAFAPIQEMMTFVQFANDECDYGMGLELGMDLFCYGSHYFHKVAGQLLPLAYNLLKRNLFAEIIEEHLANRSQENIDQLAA

In experiment [3] the target is B1. This is another data set of the same source.

For the molecule B1, the “stoichiometry N” value in experiment [1] turned out to be 1.

In the case of B2, the Kd was 6 µM with human HPF1 F280A; 2400 nM with human HPF1 R239A; 300 nM with human HPF1 E284A; 1700 nM in the experiment with human HPF1 E138K; 28.7 µM with human HPF1 C285H; 1400 nM with human HPF1 K216E. Further, the Kd in experiment [2] was 1500 nM; in the experiment with human HPF1 K307S it was 9.3 µM; with human HPF1 F139S it was 2400 nM; in experiment [3], around 1300 nM. In [3], this molecule showed a Ka of 758000 M⁻¹.
